Common to all, as to assay: EMSA
Conditions in all cases: EMSA: binding buffer 100 mM Tris-HCl pH 8, 375 mM NaCl, 25 mM MgCl2, 5 mM DTT, 65% glycerol [sic]; about 1 nmol DNA in 20 ul, 25 C …
(In general: Mobility shift assays separate free from complexed probe on a gel.)

The target in data set [1] is T1, Lrp K36R K36R (Salmonella Typhimurium 14028s) (UniProt A0A0F6AZA3).
T1 sequence: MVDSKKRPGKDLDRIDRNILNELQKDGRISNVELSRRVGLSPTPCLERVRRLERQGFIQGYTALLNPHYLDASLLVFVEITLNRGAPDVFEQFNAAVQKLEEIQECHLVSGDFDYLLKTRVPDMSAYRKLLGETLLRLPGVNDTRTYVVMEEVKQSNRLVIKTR

For data set [2], the target named is T2, Lrp K25Q K25Q (Salmonella Typhimurium 14028s) (UniProt A0A0F6AZA3).
T2 sequence: T1 sequence with K25Q, R36K

Data set [3] has as its target T3, Lrp K36Q K36Q (Salmonella Typhimurium 14028s) (UniProt A0A0F6AZA3).
T3 sequence: T1 sequence with R36Q

Data set [4] addresses T4, Lrp wild type (Salmonella Typhimurium 14028s) (UniProt A0A0F6AZA3).
T4 sequence: T1 sequence with R36K

Substitutions are numbered along the chain they refer to.

For the sequence “ACACAGTGGAGCAATAATAAAGAATGAGACCTCCCTGTTGACTGGCTATTTTGCGTAAGAGTAATAAATATGTGGAATATCCATTTCGCACCAACAAAAAAGAAATTTCTGATTAAGTAAAAACAATATGGATTATACCTGGTCTGATTTCTCGGAAAAGTCTTGCGAAATGCGAATTATGGATAGCGGGTAGGATATTCTG (double strand) [fimZ promoter]”, the binding result in data set [1] was “binds”; in data set [2] it was “binds”; in data set [3] it was “binds more weakly”; in data set [4] it was “binds”.

The record behind these values is publication PMC5112231.
